Patent US20180162952A1 (AbbVie / Abbott, published 2018)

T1: human PTK7, full length, expressed on transduced cells (human, UniProt Q13308 31-1070)
T1 sequence: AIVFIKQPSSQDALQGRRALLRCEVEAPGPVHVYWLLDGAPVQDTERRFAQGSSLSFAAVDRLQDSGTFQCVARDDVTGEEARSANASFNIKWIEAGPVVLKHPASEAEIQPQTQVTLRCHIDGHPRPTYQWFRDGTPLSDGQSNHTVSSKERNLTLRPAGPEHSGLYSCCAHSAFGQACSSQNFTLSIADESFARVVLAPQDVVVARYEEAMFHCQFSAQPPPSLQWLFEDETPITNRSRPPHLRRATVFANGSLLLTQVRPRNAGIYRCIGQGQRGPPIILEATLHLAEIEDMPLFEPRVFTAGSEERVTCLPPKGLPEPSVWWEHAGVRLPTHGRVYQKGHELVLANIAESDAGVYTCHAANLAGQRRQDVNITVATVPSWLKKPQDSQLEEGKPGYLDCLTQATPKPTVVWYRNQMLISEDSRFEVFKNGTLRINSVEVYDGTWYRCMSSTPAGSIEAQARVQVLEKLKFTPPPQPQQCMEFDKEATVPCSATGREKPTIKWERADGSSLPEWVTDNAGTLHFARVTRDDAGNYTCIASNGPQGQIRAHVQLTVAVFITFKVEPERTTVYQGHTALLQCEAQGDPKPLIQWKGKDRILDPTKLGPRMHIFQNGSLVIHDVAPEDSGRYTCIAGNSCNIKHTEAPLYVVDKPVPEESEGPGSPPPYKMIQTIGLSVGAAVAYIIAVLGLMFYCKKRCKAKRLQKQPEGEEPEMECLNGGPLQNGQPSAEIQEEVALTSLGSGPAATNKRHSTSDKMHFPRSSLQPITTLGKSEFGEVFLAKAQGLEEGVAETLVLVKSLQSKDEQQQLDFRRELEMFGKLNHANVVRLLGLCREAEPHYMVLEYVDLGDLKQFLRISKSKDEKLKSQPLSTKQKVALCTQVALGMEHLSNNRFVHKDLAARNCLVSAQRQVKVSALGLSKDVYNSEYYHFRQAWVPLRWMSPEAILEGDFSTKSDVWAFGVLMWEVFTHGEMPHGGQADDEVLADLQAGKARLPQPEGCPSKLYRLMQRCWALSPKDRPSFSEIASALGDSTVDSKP

T2: hPTK7-His (soluble His-tagged human PTK7 extracellular domain) (human, UniProt Q13308 31-704)
T2 construct: also called PTK7-ECD-His; monomeric recombinant hPTK7-His (isoform a)
T2 sequence: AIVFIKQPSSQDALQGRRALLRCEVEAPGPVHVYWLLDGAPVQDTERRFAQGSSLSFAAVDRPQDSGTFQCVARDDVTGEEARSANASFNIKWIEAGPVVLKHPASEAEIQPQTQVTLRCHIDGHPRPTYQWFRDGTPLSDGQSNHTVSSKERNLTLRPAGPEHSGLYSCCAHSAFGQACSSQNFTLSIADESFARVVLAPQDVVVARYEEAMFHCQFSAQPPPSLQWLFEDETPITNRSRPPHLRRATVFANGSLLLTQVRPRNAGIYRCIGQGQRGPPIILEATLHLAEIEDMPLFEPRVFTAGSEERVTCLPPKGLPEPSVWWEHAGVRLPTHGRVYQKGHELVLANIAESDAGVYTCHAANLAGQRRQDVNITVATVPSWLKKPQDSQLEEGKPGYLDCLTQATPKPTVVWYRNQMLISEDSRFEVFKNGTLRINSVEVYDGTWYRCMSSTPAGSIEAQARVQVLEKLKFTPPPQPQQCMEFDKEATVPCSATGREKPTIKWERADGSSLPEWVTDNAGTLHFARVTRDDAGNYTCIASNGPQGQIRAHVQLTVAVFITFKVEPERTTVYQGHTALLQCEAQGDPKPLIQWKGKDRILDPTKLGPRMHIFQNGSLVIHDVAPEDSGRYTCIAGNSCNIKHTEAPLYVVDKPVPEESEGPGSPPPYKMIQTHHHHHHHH

T3: murine PTK7-His (murine, UniProt Q8BKG3 23-696, limits assumed)
T3 construct: also called mouse PTK7-His; mouse PTK7
T3 sequence (looked up): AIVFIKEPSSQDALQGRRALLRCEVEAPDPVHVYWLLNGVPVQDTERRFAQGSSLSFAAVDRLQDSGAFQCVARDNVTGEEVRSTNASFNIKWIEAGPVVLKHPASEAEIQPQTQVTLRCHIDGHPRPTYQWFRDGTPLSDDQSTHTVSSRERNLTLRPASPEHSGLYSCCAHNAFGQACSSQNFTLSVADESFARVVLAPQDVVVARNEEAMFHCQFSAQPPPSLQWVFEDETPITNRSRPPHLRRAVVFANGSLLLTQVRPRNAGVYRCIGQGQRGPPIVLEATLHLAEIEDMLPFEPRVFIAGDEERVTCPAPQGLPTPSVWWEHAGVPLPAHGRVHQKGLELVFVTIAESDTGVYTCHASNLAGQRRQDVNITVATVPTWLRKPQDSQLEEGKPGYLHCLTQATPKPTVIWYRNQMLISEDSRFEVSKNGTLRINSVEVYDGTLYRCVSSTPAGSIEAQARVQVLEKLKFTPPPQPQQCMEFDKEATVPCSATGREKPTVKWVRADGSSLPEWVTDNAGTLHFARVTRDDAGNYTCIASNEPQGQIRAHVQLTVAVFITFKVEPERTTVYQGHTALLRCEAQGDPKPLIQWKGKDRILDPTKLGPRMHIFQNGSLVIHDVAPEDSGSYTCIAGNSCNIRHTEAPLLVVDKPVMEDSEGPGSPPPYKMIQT


What was measured:
[1] = molecular target: T1, human PTK7, full length, expressed on …; assay: cell-based or functional assay
[2] = molecular target: T2, hPTK7-His (soluble His-tagged human …); assay: Biacore (superscript B); column Affinity (nM)
Experimental: (§1) Second, the affinities and kinetic constants kₒₙ and koff of the selected effectors were then measured using bio-layer interferometry analysis on a ForteBio RED (ForteBio, Inc.) with a standard antigen concentration series. Finally, the affinity of selected modulators was measured by surface plasmon resonance (Biacore System, GE Healthcare).

murine PTK7-His = molecular target: T3, murine PTK7-His; assay: ForteBio, concentration series of recombinant monomeric antigen
Experimental: Finally, cross-reactivity with regard to cynomolgus and murine PTK7 homologs were evaluated in with a ForteBio using a concentration series comprising recombinantly expressed, monomeric antigen.

[3] = molecular target: T2, hPTK7-His (soluble His-tagged human …); assay: Biacore (paragraph 369 names ForteBio for FIGS. 7C-7E)
Experimental: as §1

[4] = molecular target: T1, human PTK7, full length, expressed on …; assay: cell-based or functional assay; remark: listed apart in the source
[5] = molecular target: T2, hPTK7-His (soluble His-tagged human …); assay: SPR, Biacore, antigen at 25, 12.5 and 6.25 nM, 1:1 Langmuir model; humanized construct
[6] = molecular target: T2, hPTK7-His (soluble His-tagged human …); assay: ForteBio (superscript F); column Affinity (nM)
Experimental: Specifically, a number of these antibodies were characterized as to affinity, kinetics, binning, and cross reactivity with regard to cynomolgus and murine homologs (e.g., by ForteBio).
In accordance with the instant invention modulator affinity was measured in three ways to ensure accuracy. […] Second, the affinities and kinetic constants kₒₙ and koff of the selected effectors were then measured using bio-layer interferometry analysis on a ForteBio RED (ForteBio, Inc.) with a standard antigen concentration series.

[7] = molecular target: T2, hPTK7-His (soluble His-tagged human …); assay: SPR, Biacore, antigen at 25, 12.5 and 6.25 nM, 1:1 Langmuir model; murine parent antibody

Binder | Kd [2] | binding result (murine PTK7-His) | Kd [3] | EC50, saporin (Fab-ZAP) cell killing, 293.PTK7 Cells [1] | reduction in viability of 293.PTK7 cells at 100 pM (Fab-ZAP human) [4] | further results
SC6.41 (antibody, V domains shown, Murine monoclonal antibody, kappa light chain) VH: EVQLQQSGAESVRSGASVKLSCTASGLNIKDYYMHWVNLRPEQGLEWIGWIDPENGDTEYAPEFQGKATMTADTSSNTAYLQLSSLTSEDTAVYYCNACNYGSAYGYWGQGTTLTVSS VL: DIVLTQATPSVPVTPGESVSISCRSSKSLLHTKGDTYLYWFLQRPGQSPQLLIYRMSNLASGVPDRFSGSGSGTVFTLRISRVEAEDVGVYYCMQHLEYPFTFGSGTKLEIKR | 1 nM | binds | 1 nM | 0.0023 nM | – | –
SC6.24 (antibody, V domains shown, Murine monoclonal antibody, kappa light chain) VH: QVQLQQSGPEVVRPGVSVKISCKGSGYTFTDYAVHWVKLSHAKSLEWIGVISTYNDYTYNNQDFKGKATMTVDKSSSTAYMELARLTSEDSAIYYCARGNSYFYALDYWGQGTSVTVSS VL: DIVLTQSPASLAVSLGQRATISCRASESVDSYGKSFMHWYQQRPGQPPKLLIYRASNLESGIPARFSGSGSRTDFTLTINPVEADDVATYYCQQSNEDPWTFGGGTKLEIK | 0.6 nM | binds | 0.6 nM | 0.0023 nM | – | –
hSC6.23 (antibody, V domains shown, Humanized; also called humanized SC6.23) VH: QITLKESGPTLVKPTQTLTLTCTFSGFSLSTSNMGVGWIRQPPGKALEWLAHIWWDDDKYYSPSLKSRLTITKDTSKNQVVLTMTNMDPVDTATYYCVRSNYGYAWFAYWGQGTLVTVSS VL: DIQMTQSPSSLSASVGDRVTITCKASQDIYPYLNWFQQKPGKAPKTLIYRTNRLLDGVPSRFSGSGSGTDFTFTISSLQPEDIATYYCLQYDEFPLTFGAGTKLEIK | – | – | – | – | > 80% | Kd [5]: 3.9 nM
SC6.23 (antibody, V domains shown, Murine monoclonal antibody, kappa light chain; also called murine SC6.23) VH: QVTLKESGPGILKPSQTLSLTCSFSGFSLSTSNMGVGWIRQPSGKGLEWLAHIWWDDDKYYNPSLKSQLTISKDTSRNQVFLKITSVDTEDTATYYCVRSNYGYAWFAYWGQGTLVTVSA VL: DIKMTQSPSSMYASLGERVTITCKASQDIYPYLNWFQQKPGKSPKTLIYRTNRLLDGVPSRFSGSGSGQDYSLTISSLDYEDMGIYYCLQYDEFPLTFGAGTKLELK | – | binds | – | 0.0011 nM | – | Kd [7]: 2.3 nM
SC6.58 (antibody, V domains shown, Murine monoclonal antibody, kappa light chain) VH: EVKLLESGGGLVQPGGSLKLSCAASGFDFSRYWMSWVRQAPGKGLEWIGDLNPDSSAINYTPSLKDKFIISRDNAKNTLYLQMSKVRSEDTALYYCTLITTLVPYTMDFWGQGTSVTVSS VL: ETTVTQSPASLSMAIGEKVTIRCITNTDIDDDMNWYQQKPGEPPKLLISEGNGLRPGVPSRFSSSGYGTDFVFTIENMLSEDVADYYCLQSDNLPLTFGSGTKLEIK | 0.5 nM | binds | 0.5 nM | 0.0104 nM | – | –
hSC6.24 (antibody, human IgG1, V domains shown) VH: QVQLVQSGPEVKKPGASVKVSCKASGYTFTDYAVHWVRQAPGKRLEWIGVISTYNDYTYNNQDFKGRVTMTRDTSASTAYMELSRLRSEDTAVYYCARGNSYFYALDYWGQGTSVTVSS VL: EIVLTQSPATLSLSPGERATLSCRASESVDSYGKSFMHWYQQKPGQAPRLLIYRASNLESGIPARFSGSGSGTDFTLTISSLEPEDFAVYYCQQSNEDPWTFGGGTKLEIKR | – | – | – | – | > 80% | –

Second part, led by results:

Kd [2] | binding result (murine PTK7-His) | Kd [3] | Binder | EC50, saporin (Fab-ZAP) cell killing, 293.PTK7 Cells [1] | reduction in viability of 293.PTK7 cells at 100 pM (Fab-ZAP human) [4] | further results
– | binds | – | SC6.21 (antibody, V domains shown, Murine monoclonal antibody) VH: DVQLQESGPGLVKPSQTLSLTCSVPDYSITSDYHWHWIRQFPGNKLEWMGYISSRGSTNYNPSLKNRISITHDTSENQFFLKLTSVTTEDSATYYCAGLSQLALDYWGQGTTLTVSS VL: DIVMSQSPSSLAVSVGEKVTLSCKSSQSLLYSSTQNNYLAWYQQTPGQSPKLLIYWASTRESGVPDRFTGSGSGTDFTLTISSVKAEDLAVYYCQQYYSYPWTFGGGTKLEIK | 0.0306 nM | – | Kd [6]: < 0.1 nM
– | – | 2.1 nM | hSC6.41 (antibody, human IgG1, V domains shown, Humanized; also called humanized SC6.41) VH: QVQLVQSGAEVKKPGASVKVSCKASGYTFKDYYMHWVRQAPGQGLEWMGWIDPENGDTEYAPEFQGRVTMTRDTSTSTVYMELSSLRSEDTAVYYCNACNYGSAYGYWGQGTTLTVSS VL: DIVMTQSPLSLPVTPGEPASISCRSSKSLLHTKGDTYLYWFLQKPGQSPQLLIYRMSNRASGVPDRFSGSGSGTDFTLKISRVEAEDVGVYYCMQHLEYPFTFGQGTKLEIKR | – | – | –
– | – | 1 nM | hSC6.58 (antibody, human IgG1, V domains shown, Humanized; also called humanized SC6.58) VH: EVQLVESGGGLVQPGGSLRLSCAASGFDFSRYWMSWVRQAPGKGLEWIGDLNPDSSAINYVDSVKGRFTISRDNAKNSLYLQMNSLRAEDTAVYYCTLITTLVPYTMDFWGQGTSVTVSS VL: ETTLTQSPAFMSATPGDKVNISCITNTDIDDDMNWYQQKPGEAAILLISEGNGLRPGIPPRFSGSGYGTDFTLTINNIESEDAAYYFCLQSDNLPLTFGSGTKLEIKR | – | > 80% | –
